Values quoted from earlier work in article PMC2920229.

Molecular target: HIV-1 protease (Human immunodeficiency virus 1) (UniProt O93215)

HIV-1 protease (from UniProt O93215)
Kd: < 5 nM
